# B1: Aha1 (activator of Hsp90 activity 1) cochaperone (natural protein)
# chain: MVVNNPNNWHWVDKNCIGWAKEYFKQKLVGVEAGSVKDKKYAKIKSVSSIEGDCEVNQRKGKVISLFDLKITVLIEGHVDSKDGSALPFEGSINVPEVAFDSEASSYQFDISIFKETSELSEAKPLIRSELLPKLRQIFQQFGKDLLATHGNDIQVPESQVKSNYTRGNQKSSFTEIKDSASKPKKNALPSSTSTSAPVSSTNKVPQNGSGNSTSIYLEPTFNVPSSELYETFLDKQRILAWTRSAQFFNSGPKLETKEKFELFGGNVISELVSCEKDKKLVFHWKLKDWSAPFNSTIEMTFHESQEFHETKLQVKWTGIPVGEEDRVRANFEEYYVRSIKLTFGFGAVL
# Molecular target: Hsp90-CYF61 homodimer (used as WT in the ATPase assays) (S. cerevisiae) (UniProt P02829)
# UniProt P02829, sequence (P02829 whole entry): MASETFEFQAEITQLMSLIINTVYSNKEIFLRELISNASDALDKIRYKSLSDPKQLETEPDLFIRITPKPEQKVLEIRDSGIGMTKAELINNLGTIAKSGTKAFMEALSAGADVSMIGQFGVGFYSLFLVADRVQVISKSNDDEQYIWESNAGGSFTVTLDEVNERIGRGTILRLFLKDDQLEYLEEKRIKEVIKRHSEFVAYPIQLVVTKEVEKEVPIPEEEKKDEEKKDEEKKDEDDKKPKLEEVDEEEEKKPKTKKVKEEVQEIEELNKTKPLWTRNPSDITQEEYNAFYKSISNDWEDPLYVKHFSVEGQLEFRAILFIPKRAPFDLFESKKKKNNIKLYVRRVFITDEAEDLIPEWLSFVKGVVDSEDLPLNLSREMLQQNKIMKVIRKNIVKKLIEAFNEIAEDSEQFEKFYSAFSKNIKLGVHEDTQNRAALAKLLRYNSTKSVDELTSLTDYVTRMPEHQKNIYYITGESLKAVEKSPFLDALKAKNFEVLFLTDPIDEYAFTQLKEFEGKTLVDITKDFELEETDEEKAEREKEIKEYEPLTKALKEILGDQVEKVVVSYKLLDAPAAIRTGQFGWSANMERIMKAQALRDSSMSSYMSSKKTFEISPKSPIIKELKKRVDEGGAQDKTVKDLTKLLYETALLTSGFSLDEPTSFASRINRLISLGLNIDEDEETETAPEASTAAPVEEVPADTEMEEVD
binder,measurement,value
B1,"stimulation of Hsp90 ATPase activity by Aha1 (ATP-regenerating coupled enzyme assay; 6 uM Aha1, 2 uM Hsp90 dimer)",20 fold
